According to the supplement of paper PMC9732359:
± gives the uncertainty stated by the source.

assay: protein stability index of a GFP-peptide fusion (yeast GPS) (PSI 1-4); higher = more stable; sorted into four equal gates, so the index is relative within each strain; settings: doa10∆
In short: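 Mid-log yeast cultures in leucine-free medium, carrying a pooled plasmid library, were sorted into four equal gates by their GFP/Cherry fluorescence ratio. Each plasmid expressed Cherry along with GFP fused upstream of a tiled 17-residue yeast protein peptide. Plasmids recovered from each gate were PCR-amplified and Illumina-sequenced, with reads assigned to strains by barcodes. The protein stability index was obtained by summing each gate's read frequency weighted by its gate number.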

Sequence | protein stability index
AADNLGSYGSLLRFNGV [PRE4] | 3.03 ± 0.088
AADVSAVDAKQLAQIRQ [YML103C/NUP188] | 2.25 ± 0.071
AAELQEKPLTPLKYTKL [SNF6] | 2.94 ± 0.13
AAGYGKILGKGRIPNVP [RPL28] | 3.46 ± 0.087
AAKPDNLANFSNEVAMN [SWP82] | 3.32 ± 0.11
AAMVIMHLMALHIHGSS [COB] | 1.9 ± 0.051
AAPSGNYKQLTLVGGGA [RRP43] | 1.36 ± 0.093
AAQDVWNRADNHFKDTY [FAS1] | 3.05 ± 0.18
AARHKQHEQGTFEKHDR [RRI2] | 3.02 ± 0.067
AATMTSAPPPALPHVEI [RGR1] | 2.52 ± 0.072
ACHVEVPYVLMGQIATF [COB] | 2.08 ± 0.092
ADDVFTGTGLQDENIGL [RPC31] | 3.46 ± 0.11
ADKVYTKENLEVSGENV [QCR2] | 3.44 ± 0.1
ADLSSSEEEEDEEENGS [SSN2] | 3.36 ± 0.087
ADNDGPRINNISAEDRA [SNF2] | 2.79 ± 0.15
ADTGRDDTKETVYISSI [RPN11] | 3.12 ± 0.09
ADTIDHDELIDSIPRDV [YGL172W/NUP49] | 2.95 ± 0.098
ADVKGVCTEAGMYALRE [RPT6] | 1.82 ± 0.08
ADVLAMAKVEVNLAAIP [RIP1] | 1.84 ± 0.12
ADVYAKALEGKDLKEIL [RPP1B] | 3.45 ± 0.22
AEASFTFGTKHAADSQN [YLR335W/NUP2] | 3.27 ± 0.14

Sequence | protein stability index
AEEEEESDDDMGFGLFD [RPP0] | 3.36 ± 0.09
AEHKYMPYTINELLEMV [BRR2] | 2.92 ± 0.083
AEKELEAEIECFDSTTG [RRP40] | 3.21 ± 0.17
AEKLVPLPICHANSVVA [YML031W/NDC1] | 1.68 ± 0.2
AEKSYLYDSLASTPSIR [RRP42] | 2.57 ± 0.15
AEQEKAKNIISNVLDGN [LRP1] | 2.45 ± 0.051
AEQLKISLSVHTLALEF [RRP46] | 2.1 ± 0.058
AERTMSKKETKLQENRT [SMC2] | 2.84 ± 0.25
AFEAELSNIPLLLITHH [ARP9] | 1.49 ± 0.071
AFGLGAIMSKSSLEELL [ECM29] | 1.83 ± 0.089
AFHNNLKFLYLLDAYSH [MED1] | 1.16 ± 0.07
AFIDERASDLRMTIRTR [RRP43] | 1.81 ± 0.18
AFLSKVPEFFQTANEKH [SRP14] | 3.21 ± 0.12
AFNDSCVNLSLFDARFE [SRB8] | 3.11 ± 0.09
AFNRFMAESLVDLEEVM [SSN8] | 1.57 ± 0.068
AFVKDMQVYLVPIERVA [RPC37] | 1.18 ± 0.13
AGADRLQQGMRGAWGKP [RPL10] | 3.41 ± 0.12
AGEFGLKNKREIYRISF [RPS9B] | 2.56 ± 0.065
AGIPIGLKRSQLDEFKN [SWP82] | 2.56 ± 0.084
AGNLITTPEINNFIVER [SRP68] | 2.79 ± 0.067
AGNTTTGGGLFGSKPTG [YGL172W/NUP49] | 2.4 ± 0.084

same assay, conditions: pdr5∆

Sequence | protein stability index
AADNLGSYGSLLRFNGV [PRE4] | 3.15 ± 0.078
AADVSAVDAKQLAQIRQ [YML103C/NUP188] | 2.94 ± 0.073
AAELQEKPLTPLKYTKL [SNF6] | 3.02 ± 0.13
AAGYGKILGKGRIPNVP [RPL28] | 3.2 ± 0.075
AAKPDNLANFSNEVAMN [SWP82] | 3.22 ± 0.088
AAMVIMHLMALHIHGSS [COB] | 1.48 ± 0.059
AAPSGNYKQLTLVGGGA [RRP43] | 2.33 ± 0.07
AAQDVWNRADNHFKDTY [FAS1] | 3.14 ± 0.1
AARHKQHEQGTFEKHDR [RRI2] | 3.04 ± 0.23
AATMTSAPPPALPHVEI [RGR1] | 2.83 ± 0.083
ACHVEVPYVLMGQIATF [COB] | 1.98 ± 0.088
ADDVFTGTGLQDENIGL [RPC31] | 3.44 ± 0.096
ADKVYTKENLEVSGENV [QCR2] | 3.59 ± 0.072
ADLSSSEEEEDEEENGS [SSN2] | 3.51 ± 0.12
ADNDGPRINNISAEDRA [SNF2] | 3.16 ± 0.18
ADTGRDDTKETVYISSI [RPN11] | 3.28 ± 0.1
ADTIDHDELIDSIPRDV [YGL172W/NUP49] | 3.24 ± 0.085
ADVKGVCTEAGMYALRE [RPT6] | 2.23 ± 0.094
ADVLAMAKVEVNLAAIP [RIP1] | 1.99 ± 0.13
AEASFTFGTKHAADSQN [YLR335W/NUP2] | 3.01 ± 0.13
AEEEEESDDDMGFGLFD [RPP0] | 2.96 ± 0.12

Sequence | protein stability index
AEHKYMPYTINELLEMV [BRR2] | 3.04 ± 0.092
AEKELEAEIECFDSTTG [RRP40] | 3.06 ± 0.14
AEKLVPLPICHANSVVA [YML031W/NDC1] | 1.34 ± 0.091
AEKSYLYDSLASTPSIR [RRP42] | 2.33 ± 0.1
AEQEKAKNIISNVLDGN [LRP1] | 2.7 ± 0.059
AEQLKISLSVHTLALEF [RRP46] | 2.29 ± 0.044
AERTMSKKETKLQENRT [SMC2] | 3.17 ± 0.19
AFEAELSNIPLLLITHH [ARP9] | 1.68 ± 0.072
AFGLGAIMSKSSLEELL [ECM29] | 2.07 ± 0.074
AFHNNLKFLYLLDAYSH [MED1] | 1.25 ± 0.049
AFIDERASDLRMTIRTR [RRP43] | 1.57 ± 0.11
AFLSKVPEFFQTANEKH [SRP14] | 3.21 ± 0.17
AFNDSCVNLSLFDARFE [SRB8] | 3.15 ± 0.059
AFNRFMAESLVDLEEVM [SSN8] | 2.4 ± 0.078
AFVKDMQVYLVPIERVA [RPC37] | 1.39 ± 0.27
AGADRLQQGMRGAWGKP [RPL10] | 3.25 ± 0.13
AGEFGLKNKREIYRISF [RPS9B] | 2.94 ± 0.091
AGIPIGLKRSQLDEFKN [SWP82] | 2.22 ± 0.075
AGIRPKFILALNDEGEP [RPN1] | 1.9 ± 0.14
AGNLITTPEINNFIVER [SRP68] | 3.07 ± 0.061
AGNTTTGGGLFGSKPTG [YGL172W/NUP49] | 2.18 ± 0.17
